The Human Domainome abundance scans (Beltran et al. 2025)

B1: PMS1 protein homolog 1, residues 572 to 637; numbered along this chain, P54277 (parent)
chain: KKPMSASALFVQDHRPQFLIENPKTSLEDATLQIEELWKTLSEEEKLKYEEKATKDLERYNSQMKR

Variants of: B1
Experiment: abundance fitness (aPCA) (normalised: wild type 0, dead -1); higher = more abundant; growth selection in yeast, the domain comes from the species named
Settings: Homo sapiens

Abundance fitness, by site and new letter:
E45: Q -0.142, F -0.606, I -0.085, C -0.327, T -0.214, P -0.811, Y -0.787, L -0.262, V -0.169, K -0.244, N -0.476, R -0.187, M -0.21, W -0.78, H -0.123, A -0.258, D -0.133, S -0.198
E43: R -0.025, P -0.086, M -0.039, S 0, A 0.004, I -0.133, D 0.029, N 0.046, V -0.026, K -0.236, H -0.087, W -0.046, C -0.102, G -0.09, F -0.234, T 0.032, Q 0.007, Y -0.095, L -0.06
T54: A 0.035, I -0.186, N -0.045, P -0.338, W -0.346, S 0.015, Y -0.331, C -0.164, D -0.016, V -0.12, G 0.07, E 0.096, L -0.009, K 0.046
K55: W -0.16, V -0.016, A 0.059, R -0.076, L -0.065, C -0.086, N -0.103, M -0.053, T -0.058, I -0.001, D -0.045, G -0.137, P -0.339, S -0.067
S42: E -0.101, G -0.165, W -1.34, P -0.065, R -0.24, K -0.072, C -0.28, T -0.078, D -0.045, A -0.085, V -0.56, Q -0.322, Y -1.21, N -0.135, L -0.801, M -0.813
S62: C 0.12, A -0.017
K52: A -0.101, E -0.059, Q -0.009, D -0.357, M 0.102, C -0.076, L -0.178, S -0.184, P -0.38, W -0.33, T -0.288, R -0.041, G -0.213, N -0.285, Y -0.302, I -0.664, F -0.507, V -0.229, H -0.272
A53: W -0.79, F -0.212, Q -0.48, V -0.26, P -0.377, E -0.227, C -0.211, Y -0.22, N -0.363, G -0.52, T -0.345, D -0.498, L -0.432, S -0.121, M -0.387, I -0.834
N61: Q -0.098, W -0.489, P -0.197, I -0.464, M -0.128, K 0.007, E 0.047, C -0.521, A -0.15, S -0.092, R -0.15, G -0.201, T -0.029, L -0.333, D -0.136, F -0.515
K48: W -0.187, H -0.426, L -0.081, C 0.041, M -0.115, F -0.121, S -0.135, Q -0.178, P -0.09, N -0.375, A -0.095, I -0.309, R -0.127, E -0.202, T -0.205, V -0.008, Y -0.078, G -0.28
E51: L -0.048, K -0.156, S -0.158, D -0.072, C -0.215, G -0.237, N -0.062, V -0.088, A -0.088, M -0.132, T -0.057, Q -0.043, F -0.224, Y -0.513, R -0.048, H -0.131, I -0.127, W -0.286
E58: Q -0.005, D -0.047, P -0.257, S -0.099, M -0.169, V -0.108, R -0.025, I -0.179, T -0.155, W -0.456, Y -0.267, K -0.043, H -0.09, A -0.113, G -0.158, F -0.321, C -0.18, N -0.307
Y49: M -0.966, N -0.717, D -0.634, A -0.507, R -0.516, H -0.616, V -0.847, T -0.614, P -0.581, Q -0.496, G -0.761, S -0.676, K -0.583, E -0.819, L -0.92, W -0.013, C -0.621
D56: E 0.104, P -0.423, I -0.306, C -0.163, V -0.348, K -0.353, H -0.172, S -0.035, G -0.144, N -0.283, W -0.258, A -0.049, R -0.128, M -0.231, L -0.142, F -0.244, Q -0.162, T -0.145
L57: F -0.17, P -0.342, H -0.112, S -0.135, E -0.066, M 0.03, T -0.19, G -0.14, Q -0.115, N -0.224, R -0.058, Y -0.18, V -0.119, C -0.084, D 0.024, K -0.123, W -0.103, I -0.136
Y60: I -0.315, F 0.063, C -0.002, T -0.039, S 0.04, N 0.022, R -0.07, D 0.026, P -0.109, L -0.186, M -0.339, W -0.117, V -0.083, K -0.075, G -0.046, E -0.103, A -0.178, H -0.075, Q -0.092
L41: N -0.501, Y -0.59, T -0.007, R -0.202, M -0.145, S -0.069, P -0.622, V -0.023, K -0.317, W -0.617, Q -0.052
K46: H -0.353, Q -0.106, R -0.058, C -0.569, F -1.21, E -1.08, A -0.395, S -0.641, M -0.508, G -0.84, W -1.17, V -0.431, L -0.685, D -0.848, N -1.37, T -0.432
E44: T -0.135, N -0.385, R -0.124, A -0.077, W -0.433, S -0.05, H -0.071, M -0.408, F -0.284, D -0.081, I -0.345, G -0.064, C -0.155, Y -0.317, Q -0.142, V -0.113
L47: S -0.039, T 0.005, K -0.235, D -0.157, A 0.058, W -0.141, H 0.032, P -0.975, F -0.085, N 0.202, R -0.091, V 0.055, C -0.149, E -0.184, M 0.017
R59: H -0.085, Q 0.087, K -0.171, C -0.121, M -0.046, A 0.05, I 0.088, V -0.021, F -0.079, N -0.169, L 0.001, D 0.17, W -0.126, E 0.05, T -0.063, S -0.017
